These results are taken from article PMC7137328.

Substrate in the series: O=P(O)(O)O[C@H]1[C@H](OP(=O)(O)O)[C@@H](OP(=O)(O)O)[C@H](OP(=O)(O)O)[C@@H](OP(=O)(O)O)[C@H]1OP(=O)(O)O
Nature of the series: purified protein. The conditions noted are these: 100 mM Tris-HCl pH 7.5, 50 °C, 10 min, 0.125-4.0 mM sodium phytate, printed kcat does not agree with printed Vmax and Mw.

B1: r-Aophytase (recombinant Aophytase; G1XN29 protein) (Orbilia oligospora ATCC 24927) (protein)
chain: ADKFSITLPITARTSSVESDSAAVYYPSKSKYSPIFIGNDGSAETGGFHVYELYGKRSDALVKELGAYKTGRSKLVEVVYGEDRDFVVTLSMSDGMFRVFEVDGKNGVRGLKAEKLVRGDFSAMCTWKSKVGEYVYVLGKRWGYRFLVREKKGGRGVEVVQTQEFGIPIEPNSCTVSPEGKVFLAGDSGKVFSFLAVDETAAPKIVEVGELGGGDEVKGLKIYHGKKDTYLLVGLEDGIEVFDIKKLGSSLGKIQFDDEELEVGDFAVHQTSAKGYEDGSIVFAGEDGEGKFFGVSSLTPLFKALGKGKLNTKYDPRDCTDNHARPKKCANLSDCNGYGYCPKDSRDKKATCDCFPGLTGKTCNKITCPSNCTSPSHGTCTGPNICTCIPPFTGENCATLAVPARYETEESGGADGDDPAIWIHPTDKTKSRIITTVKSEVGSGLGVYDLKGKRTGGVSGGEPNNVDVLYGVEFAGRKVDLAVAACRADDTICIYEITPTGDLVTIPGGVQPLPPAVKELEKKFKVYGSCVYHSPKTGAYHIFVNSKSSLYLQFQLSATTDGKLNTTLVRHFYAGNRGQVEGCVVDDENSSLFLGEEPYGIWSYDAEPDQPAVGTLVDNTVVDGGKLHADVEGVTLVYGKTKKEGYIIVSCQGYSEYNIYQRYPPHEFVMSFSIPDNKEKGVDRVTNTDGITAVGANLGKEWPYGMVVVHDDVNEAAGGGVRADATFKIVGLGDILGNKAVKELGLLKGVDENWDPRK
Take B1: the Michaelis-Menten constant (Km) (commonly the substrate concentration at which the rate is half of its maximum) stood at 1.015 mM; the kcat – broadly, the number of substrate molecules converted per active site and unit of time at saturation – came out at 13.57 s⁻¹.
